Laboratory results reported in US7018627 (ICOS, dated 2006).

B7: human C-C chemokine receptor 4 (CCR4) (receptor)
chain: MNPTDIADTTLDESIYSNYYLYESIPKPCTKEGIKAFGELFLPPLYSLVFVFGLLGNSVVVLVLFKYKRLRSMTDVYLLNLAISDLLFVFSLPFWGYYAADQWVFGLGLCKMISWMYLVGFYSGIFFVMLMSIDRYLAIVHAVFSLRARTLTYGVITSLATWSVAVFASLPGFLFSTCYTERNHTYCKTKYSLNSTTWKVLSSLEINILGLVIPLGIMLFCYSMIIRTLQHCKNEKKNKAVKMIFAVVVLFLGFWTPYNIVLFLETLVELEVLQDCTFERYLDYAIQATETLAFVHCCLNPIIYFFLGEKFRKYILQLFKTCRGLFVLCQYCGLLQIYSADTPSSSYTQSTMDHDLHDAL
notes: Expressed on stably transfected murine pre-B L1.2 cells (L1.2/CCR4, L1.2/huCCR4); also called huCCR4; MDC receptor CCR4

What was measured:
[1] = target: B7; test: competition with 0.1 nM 125I-labeled human MDC on L1.2/huCCR4 cells; LARC at 100 nM
[2] = target: B7; test: cell-based or functional assay
[3] = target: B7; test: displacement of 0.5 nM MDC-SEAP from CCR4-transfected L1.2 cells by unlabeled chemokine
Method: (§1) The MDC-SEAP was used as a probe to examine MDC binding to CCR4-transfected L1.2 cells. For displacement and saturation experiments, transfected L1.2 cells (approx. 3×10^5) were incubated for one hour at 16° C. in the presence of 0.5 nM MDC-SEAP in the presence or absence of various concentrations of unlabeled chemokines in 200 μl binding buffer (RPMI 1640 media containing 25 mM HEPES, pH 7.4, 1% BSA, and 0.02% sodium azide). Following incubation, the cells were washed four times in binding buffer and lysed in 50 μl of 10 mM Tris-HCl, pH 8.0, and 1% Triton X-100. Samples were heated at 65° C. for 15 minutes to inactivate cellular phosphatases, centrifuged, and stored at −20° C. until assayed.
(§2) Alkaline phosphatase activity in 10 μl of sample was determined by a chemiluminescence assay using the Great Escape Detection kit (Clontech, Palo Alto, Calif.) according to the manufacturer's instructions. […] Binding competition curves were fitted (TableCurve™) using a three-parameter logistic model described by the equation y=a/[1+(x/b)^c], where y is the amount of labelled ligand bound, a is the maximum amount of labelled ligand bound, x is the concentration of the competitive chemokine, b is the IC$50$, and c is a parameter that determines the slope of the curve at the IC$50$.

[4] = target: B7; test: CCR4 binding assay on L1.2/CCR4 cells, essentially as in Example 25
MDC-SEAP fusion protein = target: T1, MDC-SEAP fusion protein (human, UniProt P05187 23-506); test: saturation binding of MDC-SEAP to CCR4-transfected L1.2 cells, Scatchard analysis
T1 construct: mature; Expressed from pcDNA3 in COS cells and used as filtered culture supernatant; also called synthetic MDC-SEAP
Method: as §1, §2

Molecule: chemokine LARC (from UniProt P78556 27-96) (ligand)
- cpm of labeled MDC bound in the presence of the competitor [1]: 3800 cpm

B1: murine Leu-MDC (ligand)
chain: LGPYGANVEDSICCQDYIRHPLPSRLVKEFFWTSKSCRKPGVVLITVKNRDICADPRQVWVKKLLHKLS
- chemotaxis of L1.2/huCCR4 cells: response relative to full-length murine MDC [2]: ~20 % lower

B2: TARC (Thymus and Activation-Regulated Chemokine) (ligand)
chain: ARGTNVGRECCLEYFKGAIPLRKLKTWYQTSEDCSRDAIVFVTVQGRAICSDPNNKRVKNAVKYLQSLERS
notes: The whole entry is named here
- IC50 [3]: 2.1 nM

B3: human mature Macrophage Derived Chemokine, MDC(1-69) (ligand)
chain: GPYGANMEDSVCCRDYVRYRLPLRVVKHFYWTSDSCPRPGVVLLTFRDKEICADPRVPWVKMILNKLSQ
notes: also called mature MDC; human mature MDC
- IC50 [3]: 0.65 nM
- fold higher affinity than TARC [3]: > 3 fold

B4: MDC-wvas (ligand)
chain: GPYGANMEDSVCCRDYVRYRLPLRVVKHFYWTSDSCPRPGVVLLTFRDKEICADPRVPASKMILNKLSQ
notes: Chemically synthesized analog
- fold less affinity than MDC [4]: ~500 fold

B5: MDC-eyfy (ligand)
chain: GPYGANMEDSVCCRDYVRYRLPLRVVKEYFYTSDSCPRPGVVLLTFRDKEICADPRVPWVKMILNKLSQ
- binding result [4]: binds

B6: MDC (9-69) (ligand)
chain: DSVCCRDYVRYRLPLRVVKHFYWTSDSCPRPGVVLLTFRDKEICADPRVPWVKMILNKLSQ
notes: Chemically synthesized N-terminal deletion analog
- binding result [4]: binds

Molecule: B7
- Kd (MDC-SEAP fusion protein): 0.18 nM
